For 6 substances, stoichiometry N results are on record in PMC11703246.

Common to all, as to assay: mass photometry
Test [1] addresses PopZ P146A (Caulobacter crescentus).
For test [2] the target is unchanged. This is another data set of the same source.
In test [3] the target is isolated OD-ΔL6 of PopZ (residues 102-171) (Caulobacter crescentus).
For test [4], the target named is polar organizing protein Z (PopZ), wild type (Caulobacter crescentus).
Test [5] concerns the target ΔH2-PopZ (PopZ lacking residues 102-128) (Caulobacter crescentus).
The target in test [6] is ΔL6-PopZ (PopZ lacking residues 172-177) (Caulobacter crescentus).
Test [7] shares this target. This is another data set of the same source.
Test [8] has as its target Δloop-PopZ (PopZ lacking residues 129-134) (Caulobacter crescentus).

“And” between values parts separate entries of the source, which are not always exact repeats. Equal values may be shown once. Read-outs that look alike come from different tables or passages of the source.

For PopZ P146A (natural protein), the stoichiometry N in test [1] and in test [2] was 3 each time.

Consider “isolated OD-ΔL6 of PopZ (residues 102-171) (domain or fragment)”, for which the stoichiometry N (as a rule, the number of molecules, sites or subunits per partner or assembly) in test [3] was 6.

On to “polar organizing protein Z (PopZ), wild type (natural protein)”, for which the stoichiometry N in test [4] is 12 and 18.

For the substance “ΔH2-PopZ (PopZ lacking residues 102-128) (natural protein)”, the stoichiometry N in test [5] is 3 and 6.

“ΔL6-PopZ (PopZ lacking residues 172-177) (domain or fragment)”: the stoichiometry N in test [6] and in test [7] was 6 each time.

For “Δloop-PopZ (PopZ lacking residues 129-134) (natural protein)”, the stoichiometry N in test [8] is 3.
